# Measurements taken from the DeepSol protein solubility set.
# Experiment: soluble on expression in E. coli; label from the status in PepcDB or PDB records
row,Sequence,soluble on expression in E. coli
1,EIDGTTYVDGGLFKDLPASVIREDCRYLIGVHLNPKEPSDYKKSLFGIAERCFGYIFRANSLPDRKLCDLLIESREIIKFKPFHVEPAEEIAAFGYKMAKQVLKTTSITRNP,not soluble
2,MVNIDKIIGINNLPLANGLGEYAKRMEAVLGKNILSLVMDKRYKDMDYAGRKIYGYYPPITNGYLLNVYLSRSILKKYYKGKFPHLLSPFFYLGSEYESKSIITIHDTYYKWEKNKMQRLSKKIVRKYRSFKNIISISEQTKNDLIADGYDADNISVIYNYIDPIFRKLESINKDEKTVLTVGDGIHKNNILVNKIVNGRYYHIHIGKEVRADENYSGISTEELVKLYNRASVLIRLSDYEGFGYPPLEALFCGTPAVVSDIAVFRELLGDSAVYVKKDEVSILDGIEYAIQNRKEMLNRFESKIKSRYTKERFISNMIKYYKDL,soluble
3,MFKLVGKEAFKVGDMKCIINVEALGTFAYEYSLDVNGKTFNKFKEEQNKRLHSWETTLSGHQWRVVLDKESMEIWANGNNIDTAGEFVDNGTVTHFELGKNPCKIIAQSSGKKKTGVTHTLYVNGEIVPSTVDKPNPSNQPGSS,not soluble
4,GPGSMRLSLLRRFCEYVPKGAPTQVSLSVETPYGVTRAFRMTEMAAAAADAERDAKGFFYLPRMDYDVGQGVAPLMSRKQFDVQYNVFHKAAVDRLNAHTLGSELEGHNLNVVIRNSSFDASHAVIHAAASEHFNYCFWYRSLRPWGTAVPARLKEELQLQYSQNGTLDAVKEVQRLFTVAALSQQSAGGWVYLVWTGKAFDVIPFDHGTCPIGSDLIPLLALNTHESARCYDYPLAAEDEEGDEVERFVRNFFKTCNWRLVEHYFLQCGRA,not soluble
5,MGHHHHHHSHGQSLIVLQNVGGGEAGPQEMSGVQLQPLRPAPEVTTVQLQPAQEVTTVQLQPAQEVTTVQLQPAQEVTTVQLQPVAGQLSNSSGGAVATEAPNLLVVQSGAAEELLTGPGPGEAGDGEASTGVVQDVLFETLQTDEGLQSVLVLSGADGEQTRLCVQEVETLPPGLTEPPATGPPGQKLLIIRSAPATELLDSSNTWRRHRPRCNFLAPPAV,not soluble
6,MTQLPPAIFLMGPTAAGKTDLAIELTKVLPCELISVDSALVYRGMDIGTAKPSRELLAQFPHRLIDILDPAESYSAADFRTDALAAMADITARGKIPLLVGGTMLYYKALLEGLADMPAADPQVRAELEEEAARLGWQALHDQLAAVDPESAARIHPNDPQRLTRALEVYRVSGLTMTAHRQRQLAQSTEAGASGRSQLPYTVANLAIAPANRQVLHQRIAQRFTQMLEQGFIDEVVALRSRSDLHAGLPSIRAVGYRQVWDHLDGKLTSAEMQERGIIATRQLAKRQFTWLRSWADLQWLDSLDCDNLPRALKYLGTISILSLEHHHHHH,not soluble
7,MRGLMLRSFSAGYSTQPVIADLNVPLLPRGKITILLGPNGCGKSTLLRSLAGLNNADGEALLDGEDLMSLSFAERAQKVVFLPQSLPQGVHLHVLESIIVVLRASGGRDNAQGRAQILAILEQLGITHLALQYLDQLSGGQRQLVGLAQSLIRRPELLLLDEPLSALDLNYQFHVMDLVRRDTQAQNRVTIVVAHDINIALRHGDHVLMLKDGRLVASGAPETVITAERLAEVYRVRGRVERCSQGKLQVVLDGVIAV,not soluble
8,MTKIFAKEWNMSDPGRALASFFATLPTRPQLLALGEPNHTDDAFPAQRNRLFRTLVEEYGFRSIALESDILAGQRVNAYVTGGADDLEEVMRTGFSHDFGRRAANRELVGWLRDFNAGRSADEQVHFYGFDPPMENLWAASPRASLLTLHALLARQVPALPVSAATIERLCGDDARWANPAAGMDAAQSIGHSDEARQLRVLTDDLLHRLETGAPGLAEQPDFWEAQLAARTAAGLLRYHAVMADPAPDRIARMLAARDLLMAGHLLAIAEREQRCGPTLVFAHNLHLQRPLSRMKMGAQKIGAQTLDWWGAGAHVSRRLGERYAFIASYPGAAEETFLVPSSELTEAAATQLSVRDDGQPYSFPFKLSDLPFLNGALLVGQFLEHHHHHH,soluble
9,MAHHHHHHMLNVVQATRMSKKQEVKAYGPNVKKGDLVYGVVHIFASFNDTFVHVTDMSGRETYVKVTGGMKVKADRDESSPYAAMMAAQDVVARCKECGINALHVKMRAVGGVRTKSPGPGRPGRPPRARPRRDEDWPHRGCHPDPDRLHPPQGFPPWSPPVRSLRPRVLRTAQQSELTLVTICWFPCVCDLLSFYCREEKKHRPQITEAR,not soluble
